These results are taken from article PMC5952411 (EBioMedicine, 2018).

Holding throughout (assay): BLI
A general note: Biolayer interferometry detects binding as a change in optical thickness at a sensor tip.

Test [1] deals with Pup^E (prokaryotic ubiquitin-like protein Pup with its C-terminal glutamine converted to glutamate), biotinylated (M. tuberculosis) (UniProt P9WHN5).
In test [2] the target is T1, M. tuberculosis PafA (Pup ligase), wild type (M. tuberculosis H37Rv, UniProt P9WNU7 1-452).
T1 sequence: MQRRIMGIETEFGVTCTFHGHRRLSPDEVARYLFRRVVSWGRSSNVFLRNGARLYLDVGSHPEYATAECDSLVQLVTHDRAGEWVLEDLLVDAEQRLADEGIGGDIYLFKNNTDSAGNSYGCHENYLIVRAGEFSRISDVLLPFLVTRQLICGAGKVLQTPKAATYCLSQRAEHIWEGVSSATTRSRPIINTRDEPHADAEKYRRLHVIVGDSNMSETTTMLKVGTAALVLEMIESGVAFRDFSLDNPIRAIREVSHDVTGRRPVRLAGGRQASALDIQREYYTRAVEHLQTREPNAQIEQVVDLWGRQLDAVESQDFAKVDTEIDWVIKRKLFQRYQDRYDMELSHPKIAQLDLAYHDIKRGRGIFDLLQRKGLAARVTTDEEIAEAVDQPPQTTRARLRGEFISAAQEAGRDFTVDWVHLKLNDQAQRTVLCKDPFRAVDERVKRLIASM

Test [3] has as its target T2, M. tuberculosis PafA S119A (M. tuberculosis H37Rv, UniProt P9WNU7 1-452, S119A).
T2 sequence: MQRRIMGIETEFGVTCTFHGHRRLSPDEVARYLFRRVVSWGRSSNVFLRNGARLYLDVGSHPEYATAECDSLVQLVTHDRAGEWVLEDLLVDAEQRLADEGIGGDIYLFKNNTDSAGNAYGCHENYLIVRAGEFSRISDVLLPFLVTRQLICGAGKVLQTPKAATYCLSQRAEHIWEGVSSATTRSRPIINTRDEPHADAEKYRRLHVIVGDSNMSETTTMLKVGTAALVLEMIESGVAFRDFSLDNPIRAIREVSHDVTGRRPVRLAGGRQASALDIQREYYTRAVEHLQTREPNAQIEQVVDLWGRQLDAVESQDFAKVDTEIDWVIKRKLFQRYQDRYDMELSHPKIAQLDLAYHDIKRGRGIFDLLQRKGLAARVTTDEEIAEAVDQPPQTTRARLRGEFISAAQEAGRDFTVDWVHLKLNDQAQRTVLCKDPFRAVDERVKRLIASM

“M. tuberculosis PafA pre-incubated with AEBSF (AEBSF covalently bound at S119) (from UniProt P9WNU7 1-452) (enzyme)” registered a fold KD against WT PafA in test [1] of 2 fold.

B1: Pup^E (prokaryotic ubiquitin-like protein Pup with its C-terminal glutamine converted to glutamate), biotinylated (natural protein)
chain: MAQEQTKRGGGGGDDDDIAGSTAAGQERREKLTEETDDLLDEIDDVLEENAEDFVRAYVQKGGE
modifications: biotinylated with EZLink Sulfo-NHS-LC-Biotin (sites not given)
Regarding B1, the binding result in test [2] and in test [3] was “binds” in each case.
